What is called pKa is the negative logarithm of the acid dissociation constant. By Km is commonly meant the concentration of substrate that gives half-maximal velocity.

One data set concerns the target T1, Ps.LrhI (Stutzerimonas stutzeri, UniProt Q75WH8).
T1 construct: gene L-RhI; N-terminal hexa-His tag, synthetic gene in pET-28a, E. coli Rosetta(DE3) pLysS
T1 sequence (Q75WH8 1-430): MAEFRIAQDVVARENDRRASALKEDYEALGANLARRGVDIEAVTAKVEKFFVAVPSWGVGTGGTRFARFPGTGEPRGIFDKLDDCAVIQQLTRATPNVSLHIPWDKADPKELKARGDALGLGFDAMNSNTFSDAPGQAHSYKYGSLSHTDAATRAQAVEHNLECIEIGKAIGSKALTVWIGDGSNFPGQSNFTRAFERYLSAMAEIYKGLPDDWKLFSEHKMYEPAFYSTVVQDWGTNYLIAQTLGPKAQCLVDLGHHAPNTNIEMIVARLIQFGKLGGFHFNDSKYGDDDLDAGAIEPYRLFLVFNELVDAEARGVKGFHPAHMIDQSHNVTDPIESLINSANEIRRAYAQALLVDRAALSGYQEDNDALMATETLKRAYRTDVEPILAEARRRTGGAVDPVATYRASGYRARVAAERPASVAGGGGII
As to the kind of experiment: coupled assay with D-erythrulose reductase, NADH at […] nm. The class given is biochemical. As to conditions: 10 mM D-erythrose, 4 mM MgCl2, pH 7.0, 37 °C.

A further data set has as its target Asp52 (UniProt position 70, TDGSTDYGILQ). Particulars: cited from earlier work.
Substrate in the data set “purified protein”: O=C(CO)[C@H](O)CO
As to the kind of experiment: purified protein. The class given is biochemical, Bifidobacterium adolescentis. Particulars: pH 6.5, 37 °C, 50 mM inorganic phosphate, 0.8 mM TPP, 3.8 mM MgCl2.

For the molecule `OC1OC[C@@H](O)[C@H]1O` (stereo partly drawn) [D-erythrose], the “coupled assay with D-erythrulose reductase, NADH at 340 nm” value on Ps.LrhI was “We characterized the D-erythrose activity of the enzyme and its stability under synthesis-like conditions”. “Hen egg white lysozyme (lysozyme C) (Gallus gallus)”: in the data set with Asp52, the pKa was 3.33.

B1: Bad.F6Pkt (Bifidobacterium adolescentis ATCC 15703) (protein)
chain: MTSPVIGTPWKKLNAPVSEEAIEGVDKYWRAANYLSIGQIYLRSNPLMKEPFTREDVKHRLVGHWGTTPGLNFLIGHINRLIADHQQNTVIIMGPGHGGPAGTAQSYLDGTYTEYFPNITKDEAGLQKFFRQFSYPGGIPSHYAPETPGSIHEGGELGYALSHAYGAVMNNPSLFVPAIVGDGEAETGPLATGWQSNKLINPRTDGIVLPILHLNGYKIANPTILSRISDEELHEFFHGMGYEPYEFVAGFDNEDHLSIHRRFAELFETVFDEICDIKAAAQTDDMTRPFYPMIIFRTPKGWTCPKFIDGKKTEGSWRSHQVPLASARDTEAHFEVLKNWLESYKPEELFDENGAVKPEVTAFMPTGELRIGENPNANGGRIREELKLPKLEDYEVKEVAEYGHGWGQLEATRRLGVYTRDIIKNNPDSFRIFGPDETASNRLQAAYDVTNKQWDAGYLSAQVDEHMAVTGQVTEQLSEHQMEGFLEGYLLTGRHGIWSSYESFVHVIDSMLNQHAKWLEATVREIPWRKPISSMNLLVSSHVWRQDHNGFSHQDPGVTSVLLNKCFNNDHVIGIYFPVDSNMLLAVAEKCYKSTNKINAIIAGKQPAATWLTLDEARAELEKGAAEWKWASNVKSNDEAQIVLAATGDVPTQEIMAAADKLDAMGIKFKVVNVVDLVKLQSAKENNEALSDEEFAELFTEDKPVLFAYHSYARDVRGLIYDRPNHDNFNVHGYEEQGSTTTPYDMVRVNNIDRYELQAEALRMIDADKYADKINELEAFRQEAFQFAVDNGYDHPDYTDWVYSGVNTNKQGAISATAATAGDNE
notes: homodimer
Turning to B1, the Km in the data set “purified protein” turned out to be 36.2 ± 3.2 mM.

B2: Bad.F6Pkt (Bifidobacterium adolescentis ATCC 15703; H548N) (protein)
chain: MTSPVIGTPWKKLNAPVSEEAIEGVDKYWRAANYLSIGQIYLRSNPLMKEPFTREDVKHRLVGHWGTTPGLNFLIGHINRLIADHQQNTVIIMGPGHGGPAGTAQSYLDGTYTEYFPNITKDEAGLQKFFRQFSYPGGIPSHYAPETPGSIHEGGELGYALSHAYGAVMNNPSLFVPAIVGDGEAETGPLATGWQSNKLINPRTDGIVLPILHLNGYKIANPTILSRISDEELHEFFHGMGYEPYEFVAGFDNEDHLSIHRRFAELFETVFDEICDIKAAAQTDDMTRPFYPMIIFRTPKGWTCPKFIDGKKTEGSWRSHQVPLASARDTEAHFEVLKNWLESYKPEELFDENGAVKPEVTAFMPTGELRIGENPNANGGRIREELKLPKLEDYEVKEVAEYGHGWGQLEATRRLGVYTRDIIKNNPDSFRIFGPDETASNRLQAAYDVTNKQWDAGYLSAQVDEHMAVTGQVTEQLSEHQMEGFLEGYLLTGRHGIWSSYESFVHVIDSMLNQHAKWLEATVREIPWRKPISSMNLLVSSHVWRQDNNGFSHQDPGVTSVLLNKCFNNDHVIGIYFPVDSNMLLAVAEKCYKSTNKINAIIAGKQPAATWLTLDEARAELEKGAAEWKWASNVKSNDEAQIVLAATGDVPTQEIMAAADKLDAMGIKFKVVNVVDLVKLQSAKENNEALSDEEFAELFTEDKPVLFAYHSYARDVRGLIYDRPNHDNFNVHGYEEQGSTTTPYDMVRVNNIDRYELQAEALRMIDADKYADKINELEAFRQEAFQFAVDNGYDHPDYTDWVYSGVNTNKQGAISATAATAGDNE
notes: homodimer
Take B2: the Km in the data set “purified protein” worked out at 48.7 ± 0.4 mM.

The record behind these values is PMC12012885, “Cell-Free Reaction System for ATP Regeneration from D-Fructose” (ACS Synthetic Biology, 2025).
